These results are taken from article PMC5078997, “Diversity-oriented synthetic strategy for developing a chemical modulator of protein–protein interaction” (Nature Communications, 2016).

The experiment has as its target T1, His-tagged human leucyl-tRNA synthetase (LRS) (human, UniProt Q9P2J5 1-1176).
T1 construct: leucyl-tRNA synthetase (LRS), human; also called His-LRS; human LRS; source: laboratory stocks; purified
Briefly: ELISA; His-tagged human LRS coated on the plate (0.5 ng/ul in 100 mM carbonate buffer, pH 9.6, overnight at 4 °C), blocked with 5% BSA in PBS; GST-tagged human RagD added together with each compound for 3 h; detected with anti-GST and HRP-conjugated secondary antibody, TMB, absorbance at 450 nm. The conditions noted are these: both partners purified.

T1 sequence (Q9P2J5 whole entry): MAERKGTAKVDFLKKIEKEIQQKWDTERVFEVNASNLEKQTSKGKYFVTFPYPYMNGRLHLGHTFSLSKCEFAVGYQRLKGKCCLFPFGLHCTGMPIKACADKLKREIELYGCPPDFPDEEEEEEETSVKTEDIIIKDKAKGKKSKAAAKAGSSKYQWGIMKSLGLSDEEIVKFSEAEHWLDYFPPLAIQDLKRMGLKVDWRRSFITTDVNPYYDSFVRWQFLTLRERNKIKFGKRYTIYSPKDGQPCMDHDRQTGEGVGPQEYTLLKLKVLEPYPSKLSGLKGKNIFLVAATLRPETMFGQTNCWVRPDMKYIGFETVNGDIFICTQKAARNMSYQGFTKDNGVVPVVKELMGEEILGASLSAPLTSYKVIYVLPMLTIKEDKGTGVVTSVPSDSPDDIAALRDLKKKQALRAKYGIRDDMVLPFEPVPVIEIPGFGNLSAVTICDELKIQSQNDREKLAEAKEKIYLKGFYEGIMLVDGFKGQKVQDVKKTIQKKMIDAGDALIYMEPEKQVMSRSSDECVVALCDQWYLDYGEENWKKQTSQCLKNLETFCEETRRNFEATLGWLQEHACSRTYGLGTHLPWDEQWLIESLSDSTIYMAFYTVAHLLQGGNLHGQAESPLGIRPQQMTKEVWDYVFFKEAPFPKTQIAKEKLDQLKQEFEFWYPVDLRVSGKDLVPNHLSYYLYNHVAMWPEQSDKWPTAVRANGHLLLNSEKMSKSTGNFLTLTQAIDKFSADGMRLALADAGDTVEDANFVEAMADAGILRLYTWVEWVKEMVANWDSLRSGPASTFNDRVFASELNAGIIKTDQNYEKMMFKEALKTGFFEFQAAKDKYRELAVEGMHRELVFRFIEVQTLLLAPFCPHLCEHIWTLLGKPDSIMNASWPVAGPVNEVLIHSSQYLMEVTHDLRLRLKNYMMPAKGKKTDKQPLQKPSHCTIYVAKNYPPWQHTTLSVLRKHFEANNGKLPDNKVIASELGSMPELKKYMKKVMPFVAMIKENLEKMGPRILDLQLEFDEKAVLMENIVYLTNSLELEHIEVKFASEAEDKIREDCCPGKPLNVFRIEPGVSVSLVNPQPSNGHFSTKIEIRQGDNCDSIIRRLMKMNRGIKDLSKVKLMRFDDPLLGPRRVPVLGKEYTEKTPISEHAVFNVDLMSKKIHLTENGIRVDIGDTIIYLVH

B1: GST (glutathione-S-transferase)-tagged human Ras-related GTP-binding protein D (RagD) (natural protein, UniProt Q9NQL2 1-400, looked up)
chain: MSQVLGKPQPQDEDDAEEEEEEDELVGLADYGDGPDSSDADPDSGTEEGVLDFSDPFSTEVKPRILLMGLRRSGKSSIQKVVFHKMSPNETLFLESTNKICREDVSNSSFVNFQIWDFPGQIDFFDPTFDYEMIFRGTGALIFVIDSQDDYMEALARLHLTVTRAYKVNTDINFEVFIHKVDGLSDDHKIETQRDIHQRANDDLADAGLEKIHLSFYLTSIYDHSIFEAFSKVVQKLIPQLPTLENLLNIFISNSGIEKAFLFDVVSKIYIATDSTPVDMQTYELCCDMIDVVIDISCIYGLKEDGAGTPYDKESTAIIKLNNTTVLYLKEVTKFLALVCFVREESFERKGLIDYNFHCFRKAIHEVFEVRMKVVKSRKVQNRLQKKKRATPNGTPRVLL
notes: also called GST-tagged RagD; source: laboratory stocks; purified
Regarding B1, the binding result is on record as “binds”.
